B1: TN3-2-B1-c22-11 (designed binder)
chain: ALQTVCLKGTKVHMKCFLAFTQTKTFHEASEDCISRGGTLSTPQTGSENDALYEYLRQSVGNEAEIWLGLNKRWSRYFWVDMTGTRIAYKNWERPEDAQPDPSNWENCAVLSGAANGKWFGKRCRDQLPYICQFGIV
notes: Monomeric tetranectin CTLD clone
B2: TN3-2-B1-c22-7 (designed binder)
chain: B1 chain with E93G, P95K
notes: as for B1
B3: TN3-2-B1-C24 (designed binder)
chain: B1 chain with P95T, E96T
notes: as for B1
B4: TN3-2-B1-C19 (designed binder)
chain: B1 chain with R94L, P95I, E96R, S103A
notes: as for B1
B5: TN3-2-B1-c22-1 (designed binder)
chain: B1 chain with E93K, R94L, E96Q, D97H, Q99N, D101S
notes: as for B1
B6: TN3-2-B1-C29 (designed binder)
chain: B1 chain with R94G, P95I, D97W, S103T, W105F
notes: as for B1
B7: TN3-2-B1-C31 (designed binder)
chain: B1 chain with R94H, P95S, E96S
notes: as for B1
B8: TN3-2-B1-c22-15 (designed binder)
chain: B1 chain with E93Q, R94L, E96Q, D97H, Q99D, D101A
notes: as for B1
B9: TN3-2-B1-C53 (designed binder)
chain: B1 chain with P95L, E96A, S103F
notes: as for B1
B10: TN3-2-B1-C20 (designed binder)
chain: B1 chain with P95R, E96Q
notes: as for B1
B11: TN3-2-B1-c22-4 (designed binder)
chain: B1 chain with E93A, R94L, E96Q, D97H, Q99S, D101S
notes: as for B1
B12: TN3-2-B1-c7 (designed binder)
chain: B1 chain with R94L, P95A, E96S, S103A
notes: as for B1
B13: TN3-2-B1-c22-9 (designed binder)
chain: B1 chain with P95N, E96R
notes: as for B1
B14: TN3-2-B1-C1 (designed binder)
chain: B1 chain with R94L, P95L, E96S, S103V
notes: as for B1
B15: TN3-2-B1-c22-10 (designed binder)
chain: B1 chain with E93V, P95Q, E96R
notes: as for B1
B16: TN3-2-B1-C22-7 (designed binder)
chain: B1 chain with E93G, P95K
notes: Monomeric tetranectin CTLD clone; also called TN3-B1-C22-7; monomeric form of TN2B1C22-7
B17: TN3-2-B1-c22-13 (designed binder)
chain: B1 chain with P95L, E96R, A98S
notes: as for B1
B18: TN3-2-B1-C22 (designed binder)
chain: B1 chain with R94L, E96Q, D97H
notes: Monomeric tetranectin CTLD clone; also called monomeric form of TN2B1C22
B19: TN3-2-B1-c22-16 (designed binder)
chain: B1 chain with E93L, R94L, E96Q, D97H, A98E, D101E
notes: as for B1
B20: TN3-2-B1-c22-2 (designed binder)
chain: B1 chain with E93L, R94L, E96Q, D97H, Q99N, D101N
notes: as for B1
B21: TN3-2-B1-c22-6 (designed binder)
chain: B1 chain with E93M, R94L, P95E, E96K
notes: as for B1
B22: TN3-2-B1-c22-8 (designed binder)
chain: B1 chain with E93A, P95T, E96Q
notes: as for B1
B23: TN3-2-B1-c22-3 (designed binder)
chain: B1 chain with E93K, R94L, E96Q, D97H, Q99H, D101E
notes: as for B1
B24: TN3-2-B1-c22-12 (designed binder)
chain: B1 chain with E93S, P95Q
notes: as for B1

Substitutions are numbered along the chain they refer to.

The target in the test is T1, human tumor necrosis factor (TNF) (human, UniProt P01375 77-233).
T1 construct: The assays use 'human TNF'; The target of the phage display selection is printed only as 'TNF'; also called TNF-alpha
T1 sequence (P01375 77-233 limits assumed): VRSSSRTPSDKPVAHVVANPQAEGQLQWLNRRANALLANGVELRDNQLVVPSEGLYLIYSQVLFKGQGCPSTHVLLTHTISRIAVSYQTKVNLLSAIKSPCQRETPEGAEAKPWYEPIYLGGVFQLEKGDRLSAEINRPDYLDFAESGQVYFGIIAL
Briefly: phage display selection and maturation.
In the case of B1, the binding result is listed as “binds”.

B2: the binding result is recorded as “binds”.

Turning to B3, the binding result was “binds”.

For the molecule B4, the binding result is “binds”.

For the molecule B5, the binding result is recorded as “binds”.

B6: the binding result was “binds”.

Turning to B7, the binding result was “binds”.

For the molecule B8, the binding result is “binds”.

In the case of B9, the binding result is on record as “binds”.

With B10, the binding result was “binds”.

Consider B11, for which the binding result is “binds”.

In the case of B12, the binding result was “binds”.

In the case of B13, the binding result was “binds”.

On to B14, for which the binding result was “binds”.

Consider B15, for which the binding result was “binds”.

As to B16, the binding result is reported as “binds”.

B17: the binding result is given as “binds”.

On to B18, for which the binding result is “binds”.

B19: the binding result is “binds”.

Take B20: the binding result is given as “binds”.

As for B21, the binding result was “binds”.

For the molecule B22, the binding result is listed as “binds”.

With B23, the binding result is “binds”.

As to B24, the binding result is given as “binds”.
